Article PMC8091058, “Distinct intramolecular interactions regulate autoinhibition of vinculin binding in αT-catenin and αE-catenin” (The Journal of Biological Chemistry, 2021)

How the values were obtained:
Assay in all cases: ITC; vinculin D1 injected into αT-catenin or αE-catenin fragment (or αT-catenin head–β-catenin complex) in the cell; 25 °C; 20 mM Hepes pH 8.0, 150 mM NaCl, 1 mM TCEP
[1] = target: 2I27–αT-catenin M1-M3 (aa 259–667)-2I27 (UniProt Q65CL1)
[2] = target: T1, αT-catenin N2-M3 (aa 147–626) (Mus musculus, UniProt Q65CL1 147-626); conditions: both partners purified
T1 construct: αT-catenin, Mus musculus, N2-M3, aa 147-626; in pGEX-TEV; also called αT-catenin N2-M3 (147–626); source: E. coli BL21-Gold, purified (glutathione-agarose, TEV cleavage, Mono Q or Mono S, S200)
T1 sequence (looked up): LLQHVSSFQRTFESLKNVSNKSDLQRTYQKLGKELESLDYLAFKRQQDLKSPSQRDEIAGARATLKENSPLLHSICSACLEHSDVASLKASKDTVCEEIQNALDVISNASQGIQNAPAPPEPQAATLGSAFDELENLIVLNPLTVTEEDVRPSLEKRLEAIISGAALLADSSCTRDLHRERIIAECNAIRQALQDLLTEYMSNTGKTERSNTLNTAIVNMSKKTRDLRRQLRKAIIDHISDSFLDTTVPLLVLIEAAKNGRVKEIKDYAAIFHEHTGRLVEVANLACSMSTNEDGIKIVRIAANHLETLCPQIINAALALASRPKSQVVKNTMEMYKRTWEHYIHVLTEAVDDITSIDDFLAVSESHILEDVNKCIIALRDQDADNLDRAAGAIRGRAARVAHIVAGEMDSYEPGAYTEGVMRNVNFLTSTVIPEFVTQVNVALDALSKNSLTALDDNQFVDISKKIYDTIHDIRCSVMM

[3] = target: T2, αT-catenin M1-M3 (aa 260–626) (Mus musculus, UniProt Q65CL1 260-626); conditions: both partners purified
T2 construct: αT-catenin, Mus musculus, M1-M3, aa 260-626; in pGEX-TEV; also called αT-catenin M-region; αT-catenin M1-M3 (260–626); source: E. coli BL21-Gold, purified (glutathione-agarose, TEV cleavage, Mono Q or Mono S, S200)
T2 sequence (looked up): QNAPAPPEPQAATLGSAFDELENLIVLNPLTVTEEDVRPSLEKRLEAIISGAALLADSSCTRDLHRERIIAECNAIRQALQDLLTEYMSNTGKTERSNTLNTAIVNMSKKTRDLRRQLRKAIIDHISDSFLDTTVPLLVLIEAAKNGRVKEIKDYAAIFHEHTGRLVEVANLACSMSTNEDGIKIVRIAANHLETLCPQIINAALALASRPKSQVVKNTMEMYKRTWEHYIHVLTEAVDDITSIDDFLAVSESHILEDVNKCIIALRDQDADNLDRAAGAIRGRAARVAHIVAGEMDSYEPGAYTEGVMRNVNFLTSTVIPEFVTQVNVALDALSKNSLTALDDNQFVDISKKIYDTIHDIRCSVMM

Kd [1]: 245 nM
dH [1]: 4.8 kcal/mol
Kd [2]: 50.2 ± 40.4 nM
dH [2]: 4 ± 0.1 kcal/mol
Kd [3]: 60.5 ± 19.2 nM
dH [3]: -2.2 ± 1 kcal/mol
B1: vinculin D1 (aa 1–259) (domain or fragment, UniProt P12003 1-259, looked up)
chain: MPVFHTRTIESILEPVAQQISHLVIMHEEGEVDGKAIPDLTAPVSAVQAAVSNLVRVGKETVQTTEDQILKRDMPPAFIKVENACTKLVRAAQMLQADPYSVPARDYLIDGSRGILSGTSDLLLTFDEAEVRKIIRVCKGILEYLTVAEVVETMEDLVTYTKNLGPGMTKMAKMIDERQQELTHQEHRVMLVNSMNTVKELLPVLISAMKIFVTTKNTKSQGIEEALKNRNFTVEKMSAEINEIIRVLQLTSWDEDAWA
notes: vinculin D1 fragment, aa 1-259, the first 2 four-helix bundles; in pGEX-TEV; also called vinculin aa 1 to 259 (D1); vinculin N-terminus; source: E. coli BL21-Gold, purified (glutathione-agarose, TEV cleavage, Mono Q or Mono S, S200)
